Source: IntAct's records for PubMed 11018022

B1: Insulin receptor substrate 1 (Rattus norvegicus (Rat)), P35570 (parent)
chain: MASPPDTDGFSDVRKVGYLRKPKSMHKRFFVLRAASEAGGPARLEYYENEKKWRHKSSAPKRSIPLESCFNINKRADSKNKHLVALYTRDEHFAIAADSEAEQDSWYQALLQLHNRAKAHHDGAGGGCGGSCSGSSGVGEAGEDLSYDTGPGPAFKEVWQVILKPKGLGQTKNLIGIYRLCLTSKTISFVKLNSEAAAVVLQLMNIRRCGHSENFFFIEVGRSAVTGPGEFWMQVDDSVVAQNMHETILEAMRAMSDEFRPRTKSQSSSSCSNPISVPLRRHHLNNPPPSQVGLTRRSRTESITATSPASMVGGKPGSFRVRASSDGEGTMSRPASVDGSPVSPSTNRTHAHRHRGSSRLHPPLNHSRSIPMPSSRCSPSATSPVSLSSSSTSGHGSTSDCLFPRRSSASVSGSPSDGGFISSDEYGSSPCDFRSSFRSVTPDSLGHTPPARGEEELSNYICMGGKGASTLTAPNGHYILSRGGNGHRYIPGATMGTSPALTGDEAAGAADLDNRFRKRTHSAGTSPTISHQKTPSQSSVVSIEEYTEMMPAAYPPGGGSGGRLPGYRHSAFVPTHSYPEEGLEMHHLERRGGHHRPDSSNLHTDDGYMPMSPGVAPVPSNRKGNGDYMPMSPKSVSAPQQIINPIRRHPQRVDPNGYMMMSPSGSCSPDIGGGSCSSSSISAAPSGSSYGKPWTNGVGGHHTHALPHAKPPVESGGGKLLPCTGDYMNMSPVGDSNTSSPSECYYGPEDPQHKPVLSYYSLPRSFKHTQRPGEPEEGARHQHLRLSSSSGRLRYTATAEDSSSSTSSDSLGGGYCGARPESSVTHPHHHALQPHLPRKVDTAAQTNSRLARPTRLSLGDPKASTLPRVREQQQQQQQQQQSSLHPPEPKSPGEYVNIEFGSGQPGYLAGPATSRSSPSVRCLPQLHPAPREETGSEEYMNMDLGPGRRATWQESGGVELGRVGPAPPGAASICRPTRSVPNSRGDYMTMQIGCPRQSYVDTSPVAPVSYADMRTGIAAEKVSLPRTTGAAPPPSSTASASASVTPQGAAEQAAHSSLLGGPQGPGGMSAFTRVNLSPNHNQSAKVIRADTQGCRRRHSSETFSAPTRAANTVSFGAGAAGGGSGGGSEDVKRHSSASFENVWLRPGDLGGASKESAPGCGAAGGLEKSLNYIDLDLVKDVKQHPQDCPSQQQSLPPPPPHQPLGSNEGSSPRRSSEDLSTYASINFQKQPEDRQ

Variants of: B1
Conditions: with phip_mouse Phip

effect of a mutation on the interaction | Variant
disrupting interaction | W106A
